Consider six molecules from article PMC7840129, “Structural basis for heme-dependent NCoR binding to the transcriptional repressor REV-ERBβ” (Science Advances, 2021).

B1: mouse NCoR RID ΔID2 mutant (domain or fragment)
chain: QVPRTHRLITLADHICQIITQDFARNQVPSQASTSTFQTSPSALSSTPVRTKTSSRYSPESQSQTVLHPRPGPRVSPENLVDKSRGSRPGKSPERSHIPSEPYEPISPPQGPAVHEKQDSMLLLSQRGVDPAEQRSDSRSPGSISYLPSFFTKLESTSPMVKSKKQEIFRKLNSSGGGDSDMAAAQPGTEIFNLPAVTTSGAVSSRSHSFADPASNLGTEDTTRKALMGSFDDKVEDHGVVMSHPVGIMPGSASTSVVTSSEARRDE
B2: mouse NCoR receptor interaction domain (residues 1942 to 2208 in the X50 splice variant), wild type (domain or fragment)
chain: B1 chain with T219L, T222I, T223I
B3: NCoR ID2 peptide (peptide)
peptide: DPASNLGLEDIIRKALMGSFDDK
modifications: not fully specified
notes: source: synthetic peptide, bought: LifeTein
B4: NCoR ID1 peptide (peptide)
peptide: RTHRLITLADHICQIITQDFARN
modifications: not fully specified
notes: as for B3
B5: human REV-ERBβ ligand-binding domain (residues 381 to 579) (domain or fragment, UniProt Q14995 381-579, looked up)
chain: HLVCPMSKSPYVDPHKSGHEIWEEFSMSFTPAVKEVVEFAKRIPGFRDLSQHDQVNLLKAGTFEVLMVRFASLFDAKERTVTFLSGKKYSVDDLHSMGAGDLLNSMFEFSEKLNALQLSDEEMSLFTAVVLVSADRSGIENVNSVEALQETLIRALRTLIMKNHPNEASIFTKLLLKLPDLRSLNNMHSEELLAFKVHP
notes: cloned into pET46; Used ligand-free (apo) or loaded with heme (a small molecule; 1.05 to 2 molar equivalents); the two states are told apart by the assays; also called REV-ERBβ LBD; LBD; source: E. coli BL21(DE3), purified (IMAC, 3C protease cleavage, size exclusion); 15N-labelled in M9 minimal media for NMR; not shown: 6xHis, N-terminal, cleaved
B6: REV-ERBβ: full-length human REV-ERBβ expressed from pcDNA3.1 vector in HEK293T cells (protein)
chain: B5 chain
modifications: left off: 6xHis, N-terminal, cleaved
notes: full-length human REV-ERBβ expressed from pcDNA3.1 vector in HEK293T cells

Changes are numbered by the printed parent chain. Where no end group is shown, it is not given here.

The target of assay [1] is B5. Nature of the assay: ITC; apo LBD (300 μM, syringe; for WT RID 2 × 20 injections of 150 μM) titrated into RID construct (15 μM, cell); 25°C; Hepes assay buffer; WT RID fit to two nonsymmetric sites, microscopic K model; ΔID2 fit to A + B ↔ AB. Particulars: both partners purified. For orientation: In ITC the heat of successive injections is recorded.
Assay [2] deals with B5. As to the kind of experiment: ITC; heme-bound LBD (300 μM, syringe) titrated into RID construct (15 μM, cell), 4 molar equivalents; 25°C; Hepes assay buffer; WT RID fit to A + B ↔ AB. The settings on record: both partners purified.
The target in assay [3] is B5. As to the kind of experiment: ITC; apo LBD (500 μM, syringe) titrated into ID peptide (50 μM, cell); 25°C; 20 mM Hepes pH 7.4, 50 mM KCl, 0.5 mM EDTA, 5 mM TCEP; A + B ↔ AB model in SEDPHAT. The settings on record: both partners purified.
For assay [4], the target named is B5. As to the kind of experiment: ITC; heme-bound LBD (500 μM with 1.05 molar equivalents of heme, syringe) titrated into ID peptide (50 μM, cell); 25°C; 20 mM Hepes pH 7.4, 50 mM KCl, 0.5 mM EDTA, 5 mM TCEP; A + B ↔ AB model in SEDPHAT. Particulars: both partners purified.
The target in assay [5] is B2. As to the kind of experiment: ITC; heme-bound LBD (300 μM, syringe) titrated into RID construct (15 μM, cell), 4 molar equivalents; 25°C; Hepes assay buffer; WT RID fit to A + B ↔ AB. The settings on record: both partners purified.
In assay [6] the target is B4. As to the kind of experiment: ITC; heme-bound LBD (500 μM with 1.05 molar equivalents of heme, syringe) titrated into ID peptide (50 μM, cell); 25°C; 20 mM Hepes pH 7.4, 50 mM KCl, 0.5 mM EDTA, 5 mM TCEP; A + B ↔ AB model in SEDPHAT. The settings on record: both partners purified.
The target in assay [7] is B3. The assay is described as above. The settings on record: both partners purified.
In assay [8] the target is B2. As to the kind of experiment: ITC; apo LBD (300 μM, syringe; for WT RID 2 × 20 injections of 150 μM) titrated into RID construct (15 μM, cell); 25°C; Hepes assay buffer; WT RID fit to two nonsymmetric sites, microscopic K model; ΔID2 fit to A + B ↔ AB. Particulars: both partners purified.
Assay [9] deals with B1. Described as above. The settings on record: both partners purified.
Assay [10] deals with B2. Nature of the assay: ITC; heme-bound LBD (300 μM, syringe) titrated into RID construct (15 μM, cell), 4 molar equivalents; 25°C; Hepes assay buffer; WT RID fit to A + B ↔ AB. Particulars: both partners purified.
Assay [11] addresses B2. As to the kind of experiment: ITC; apo LBD (300 μM, syringe; for WT RID 2 × 20 injections of 150 μM) titrated into RID construct (15 μM, cell); 25°C; Hepes assay buffer; WT RID fit to two nonsymmetric sites, microscopic K model; ΔID2 fit to A + B ↔ AB. The settings on record: both partners purified.
The target in assay [12] is B4. Nature of the assay: ITC; apo LBD (500 μM, syringe) titrated into ID peptide (50 μM, cell); 25°C; 20 mM Hepes pH 7.4, 50 mM KCl, 0.5 mM EDTA, 5 mM TCEP; A + B ↔ AB model in SEDPHAT. The settings on record: both partners purified.
In assay [13] the target is B3. Described as above. Particulars: both partners purified.
The subject of assay [14] is Bmal1 REV-RE promoter luciferase in HEK293T cells. As to the kind of experiment: Bmal1-luciferase transcriptional repression assay. It is filed as cell-based, human. The settings on record: for fold repression of Bmal1-luciferase: HEK293T, 24 hours, relative to empty vector, n = 3 independent experiments. The source says:
The human REV-ERBβ LBD (residues 381 to 579) was previously cloned into the pET46 vector ([18]). The mouse NCoR RID (residues 1942 to 2208 in the X50 splice variant), which has 87% sequence identity to human NCoR RID (100% sequence identity in the ID motifs), was previously cloned into the pET32 vector ([29]). NCoR RID mutants were generated by site-directed mutagenesis: The ID1 CoRNR box motif was mutated from […] to […] (ΔID1 and ΔID1ΔID2), and the ID2 CoRNR box motif was mutated from LEDIIRKAL to TEDTTRKAL (ΔID2 and ΔID1ΔID2), as these mutations were previously reported to disrupt CoRNR box binding ([10], [30]). Heme (Sigma-Aldrich, no. 51280) was prepared either as a 1 mM stock in dimethyl sulfoxide (DMSO) stored at 4°C or 50 mM stock in 0.2 M NaOH (solutions prepared in 0.2 M NaOH were always made fresh immediately before the experiment), where indicated. […] Human embryonic kidney (HEK) 293T cells (American Type Culture Collection, no. CRL-11268) were cultured in Dulbecco’s modified eagle medium (DMEM) supplemented with 10% fetal bovine serum, 2 mM L-glutamine, and 1% penicillin-streptomycin at 37°C and 5% CO2 under standard culture conditions. The pcDNA3.1^+ expression vector containing full-length human REV-ERBβ ([31]) and the pGL3-Bmal1-luciferase construct containing the Bmal1 promoter (−816 to +99 of the mouse Bmal1 promoter region) were used in HEK293T cell transfections. […]
HEK293T cells were plated at 1.5 × 10^3 cells per well in 96-well flat-bottom plates in DMEM 24 hours before transfection. […] Luciferase activity was harvested 24 hours after transfection with Britelite Plus (PerkinElmer) and read using a BioTek Synergy plate reader. Raw luminescence values of REV-ERBβ–transfected wells were normalized to pcDNA3.1 empty vector transfection wells individually for each Bmal1-luciferase construct to determine fold repression by REV-ERBβ for each Bmal1-luciferase construct. […]

A word on the Kd: it is the constant that tells how readily two partners part at equilibrium. As for B1, the Kd in assay [1] turned out to be 130 nM.
Consider B2, for which the dissociation constant (Kd) in [2] is 99 nM.
As to B3, the Kd in [3] was 84000 nM.
For the molecule B4, the Kd stood at 2400 nM in assay [4] and 490 nM in assay [3].
For orientation: stoichiometry N means a count of units in the complex or per binding partner. For B5, the “stoichiometry N” value in assay [5] is roughly 2 LBD per RID; in assay [11], 2 LBD per RID. Moreover, the dH with NCoR ID1 peptide [6] was 1.7 kcal/mol; with NCoR ID2 peptide [7] it was 3 kcal/mol; in assay [9], -9.4 kcal/mol; in assay [10] it was 1.7 kcal/mol; in the assay with NCoR ID1 peptide [12], -7.7 kcal/mol; with NCoR ID2 peptide [13], -9.7 kcal/mol. For the same molecule, in assay [8], the “KD site 1” value was found to be 12 nM. The “KD site 2” value in assay [8] was 740 nM. The “dH site 1” value in assay [8] is -8.3 kcal/mol. In addition, the “dH site 2” value in assay [8] worked out at 3.2 kcal/mol.
As to B6, the “fold repression of Bmal1-luciferase” value in assay [14] (WT Bmal1 construct) is recorded as “approximately ninefold”; in [14] (mutant Bmal1 constructs (one or both DNA binding sites within REV-RE mutated)) it was “approximately threefold”. Further, the “reduction of repression in mutant vs WT Bmal1 constructs” value in assay [14] (pRORE, dRORE or p/dRORE mutants vs WT, ***P < 0.001 by Student's t test) was “more than half”.
